The text below walks through data of publication PMC7082060, “Structure of mouse coronavirus spike protein complexed with receptor reveals mechanism for viral entry” (PLoS Pathogens, 2020).

The target of data set [1] is MHV spike ectodomain (S-e), strain A59 (mouse hepatitis coronavirus (MHV), strain A59) (UniProt P11224). Put plainly: cryo-EM structure.
Data set [2] shares this target.
The data set “cryo-EM structure” concerns the molecule itself. The data set is described as follows: cryo-EM structure.

“Mouse CEACAM1a ectodomain (D1-D4), C-terminal His6 tag (receptor)” returned a stoichiometry N (CEACAM1a molecules per S-e trimer) in data set [1] of 3. For the same molecule, in data set [2], the negative-stain EM: share of S-e molecules in the post-fusion conformation after high concentration of trypsin with CEACAM1a (11.75% without CEACAM1a) was 50.9%.

B1: MHV spike ectodomain (S-e), strain A59 (domain or fragment)
chain: YIGDFRCIQLVNSNGANVSAPSISTETVEVSQGLGTYYVLDRVYLNATLLLTGYYPVDGSKFRNLALRGTNSVSLSWFQPPYLNQFNDGIFAKVQNLKTSTPSGATAYFPTIVIGSLFGYTSYTVVIEPYNGVIMASVCQYTICQLPYTDCKPNTNGNKLIGFWHTDVKPPICVLKRNFTLNVNADAFYFHFYQHGGTFYAYYADKPSATTFLFSVYIGDILTQYYVLPFICNPTAGSTFAPRYWVTPLVKRQYLFNFNQKGVITSAVDCASSYTSEIKCKTQSMLPSTGVYELSGYTVQPVGVVYRRVANLPACNIEEWLTARSVPSPLNWERKTFQNCNFNLSSLLRYVQAESLFCNNIDASKVYGRCFGSISVDKFAVPRSRQVDLQLGNSGFLQTANYKIDTAATSCQLHYTLPKNNVTINNHNPSSWNRRYGFNDAGVFGKNQHDVVYAQQCFTVRSSYCPCAQPDIVSPCTTQTKPKSAFVNVGDHCEGLGVLEDNCGNADPHKGCICANNSFIGWSHDTCLVNDRCQIFANILLNGINSGTTCSTDLQLPNTEVVTGICVKYDLYGITGQGVFKEVKADYYNSWQTLLYDVNGNLNGFRDLTTNKTYTIRSCYSGRVSAAFHKDAPEPALLYRNINCSYVFSNNISREENPLNYFDSYLGCVVNADNRTDEALPNCDLRMGAGLCVDYSKSRRAHRSVSTGYRLTTFEPYTPMLVNDSVQSVDGLYEMQIPTNFTIGHHEEFIQTRSPKVTIDCAAFVCGDNTACRQQLVEYGSFCVNVNAILNEVNNLLDNMQLQVASALMQGVTISSRLPDGISGPIDDINFSPLLGCIGSTCAEDGNGPSAIRGRSAIEDLLFDKVKLSDVGFVEAYNNCTGGQEVRDLLCVQSFNGIKVLPPVLSESQISGYTTGATAAAMFPPWSAAAGVPFSLSVQYRINGLGVTMNVLSENQKMIASAFNNALGAIQDGFDATNSALGKIQSVVNANAEALNNLLNQLSNRFGAISASLQEILTRLEAVEAKAQIDRLINGRLTALNAYISKQLSDSTLIKVSAAQAIEKVNECVKSQTTRINFCGNGNHILSLVQNAPYGLYFIHFSYVPISFTTANVSPGLCISGDRGLAPKAGYFVQDDGEWKFTGSSYYYPEPITDKNSVIMSSCAVNYTKAPEVFLNTSIPNPPDFKEELDKWFKNQTSIAPDLSLDFEKLNVT
notes: also called MHV S-e; recombinant MHV S-e; not shown: GCN4 trimerization tag, C-terminal, kept; His6, C-terminal, kept
As to B1, in the data set “cryo-EM structure”, the “stoichiometry N” value is 3.
